This data set is described as follows: Directed evolution of UGT76G1, Rebaudioside D to Rebaudioside M, round 1 (Example 26). It counts as biochemical. The settings on record: 100 μL fresh lysate, 0.5 mM Rebaudioside D, 30° C., pH 7.2. Here is the method: Lysis was performed by addition of Bugbuster® Master mix (Novagen®) to the thawed cells and the lysate was recovered by centrifugation. Activity tests were performed with 100 μL of fresh lysate that was added to a solution of Rebaudioside D (final concentration 0.5 mM), MgCl2 (final concentration 3 mM) and UDP-Glucose (final concentration 2.5 mM) in 50 mM phosphate buffer pH 7.2.
The reaction was allowed to run at 30° C. and samples were taken after 2, 4, 7 and 24 h. to determine conversion and initial rate by HPLC (CAD detection) using the analytical method that was described above for the transformation of Rebaudioside D to Rebaudioside M. The results are depicted in the following table.

Changes are numbered by the printed parent chain.

B1: UGT76G1var7: UGT76G1 variant, mutations F22L_I43V_A239V (protein, UniProt Q6VAB4 1-458, looked up, variant F22L I43V A239V)
UDP-glycosyltransferase 76G1: MENKTETTVRRRRRIILFPVPLQGHINPILQLANVLYSKGFSVTIFHTNFNKPKTSNYPHFTFRFILDNDPQDERISNLPTHGPLAGMRIPIINEHGADELRRELELLMLASEEDEEVSCLITDALWYFAQSVADSLNLRRLVLMTSSLFNFHAHVSLPQFDELGYLDPDDKTRLEEQASGFPMLKVKDIKSAYSNWQILKEILGKMIKQTKASSGVIWNSFKELEESELETVIREIPVPSFLIPLPKHLTASSSSLLDHDRTVFQWLDQQPPSSVLYVSFGSTSEVDEKDFLEIARGLVDSKQSFLWVVRPGFVKGSTWVEPLPDGFLGERGRIVKWVPQQEVLAHGAIGAFWTHSGWNSTLESVCEGVPMIFSDFGLDQPLNARYMSDVLKVGVYLENGWERGEIANAIRRVMVDEEGEYIRQNARVLKQKADVSLMKGGSSYESLESLVSYISSL
In the case of B1, the “conversion Reb D to Reb M after 24 h” value is on record as 0.2% and the initial rate is given as −6.0E+04 Reb M area/min.

B2: UGT76G1var29: UGT76G1 variant, mutations F22Y_V279I_N409R (protein, UniProt Q6VAB4 1-458, looked up, variant F22Y V279I N409R)
UDP-glycosyltransferase 76G1: B1 UDP-glycosyltransferase 76G1 with L22Y, V43I, V239A, V279I, N409R
B2: the “conversion Reb D to Reb M after 24 h” value is 41.0% and the initial rate came out at 2.9E+07 Reb M area/min.

B3: UGT76G1var20: UGT76G1 variant, mutations S375M_K393G_Y397E (protein, UniProt Q6VAB4 1-458, looked up, variant S375M K393G Y397E)
UDP-glycosyltransferase 76G1: B1 UDP-glycosyltransferase 76G1 with L22F, V43I, V239A, S375M, K393G, Y397E
Take B3: the “conversion Reb D to Reb M after 24 h” value came out at 1.8% and the initial rate amounted to 1.9E+06 Reb M area/min.

B4: UGT76G1var14: UGT76G1 variant, mutations A239I_F265I_V396F (protein, UniProt Q6VAB4 1-458, looked up, variant A239I F265I V396F)
UDP-glycosyltransferase 76G1: B1 UDP-glycosyltransferase 76G1 with L22F, V43I, V239I, F265I, V396F
In the case of B4, the “conversion Reb D to Reb M after 24 h” value stood at 5.3% and the initial rate is recorded as 1.5E+06 Reb M area/min.

B5: UGT76G1var18: UGT76G1 variant, mutations L243P_S274G_N409R (protein, UniProt Q6VAB4 1-458, looked up, variant L243P S274G N409R)
UDP-glycosyltransferase 76G1: B1 UDP-glycosyltransferase 76G1 with L22F, V43I, V239A, L243P, S274G, N409R
For B5, the “conversion Reb D to Reb M after 24 h” value stood at 1.9% and the initial rate was found to be 5.0E+05 Reb M area/min.

B6: UGT76G1var11: UGT76G1 variant, mutations F22L_A33G_V310I (protein, UniProt Q6VAB4 1-458, looked up, variant F22L A33G V310I)
UDP-glycosyltransferase 76G1: B1 UDP-glycosyltransferase 76G1 with A33G, V43I, V239A, V310I
For the molecule B6, the “conversion Reb D to Reb M after 24 h” value is recorded as 0.4% and the initial rate came to 3.8E+04 Reb M area/min.

B7: UGT76G1var33: UGT76G1 variant, mutations A33G_R334H_Y397Q (protein, UniProt Q6VAB4 1-458, looked up, variant A33G R334H Y397Q)
UDP-glycosyltransferase 76G1: B1 UDP-glycosyltransferase 76G1 with L22F, A33G, V43I, V239A, R334H, Y397Q
In the case of B7, the “conversion Reb D to Reb M after 24 h” value is given as 1.0% and the initial rate is listed as 7.5E+06 Reb M area/min.

B8: UGT76G1var12: UGT76G1 variant, mutations L243P_K303G_A352G (protein, UniProt Q6VAB4 1-458, looked up, variant L243P K303G A352G)
UDP-glycosyltransferase 76G1: B1 UDP-glycosyltransferase 76G1 with L22F, V43I, V239A, L243P, K303G, A352G
Consider B8, for which the “conversion Reb D to Reb M after 24 h” value is on record as 0.5% and the initial rate came to 8.7E+04 Reb M area/min.

B9: UGT76G1var8: UGT76G1 variant, mutations E224A_Q266S_Q342E (protein, UniProt Q6VAB4 1-458, looked up, variant E224A Q266S Q342E)
UDP-glycosyltransferase 76G1: B1 UDP-glycosyltransferase 76G1 with L22F, V43I, E224A, V239A, Q266S, Q342E
B9: the “conversion Reb D to Reb M after 24 h” value amounted to 0.5% and the initial rate was 2.3E+04 Reb M area/min.

B10: UGT76G1var32: UGT76G1 variant, mutations A239V_L243A_S375M (protein, UniProt Q6VAB4 1-458, looked up, variant A239V L243A S375M)
UDP-glycosyltransferase 76G1: B1 UDP-glycosyltransferase 76G1 with L22F, V43I, L243A, S375M
Regarding B10, the “conversion Reb D to Reb M after 24 h” value came out at 0.0% and the initial rate is listed as −4.4E+04 Reb M area/min.

B11: UGT76G1var34: UGT76G1 variant, mutations I43V_T284I_I295T (protein, UniProt Q6VAB4 1-458, looked up, variant I43V T284I I295T)
UDP-glycosyltransferase 76G1: B1 UDP-glycosyltransferase 76G1 with L22F, V239A, T284I, I295T
On to B11, for which the “conversion Reb D to Reb M after 24 h” value came out at 3.4% and the initial rate is listed as 1.5E+06 Reb M area/min.

B12: UGT76G1var23: UGT76G1 variant, mutations T263S_G348P_A352G (protein, UniProt Q6VAB4 1-458, looked up, variant T263S G348P A352G)
UDP-glycosyltransferase 76G1: B1 UDP-glycosyltransferase 76G1 with L22F, V43I, V239A, T263S, G348P, A352G
Regarding B12, the initial rate stood at 4.1E+07 Reb M area/min.

B13: UGT76G1var31: UGT76G1 variant, mutations E224D_L243P_V300A (protein, UniProt Q6VAB4 1-458, looked up, variant E224D L243P V300A)
UDP-glycosyltransferase 76G1: B1 UDP-glycosyltransferase 76G1 with L22F, V43I, E224D, V239A, L243P, V300A
Take B13: the “conversion Reb D to Reb M after 24 h” value was found to be 0.4% and the initial rate is given as 2.4E+05 Reb M area/min.

B14: UGT76G1var13: UGT76G1 variant, mutations L243A_S357C_A385T (protein, UniProt Q6VAB4 1-458, looked up, variant L243A S357C A385T)
UDP-glycosyltransferase 76G1: B1 UDP-glycosyltransferase 76G1 with L22F, V43I, V239A, L243A, S357C, A385T
In the case of B14, the “conversion Reb D to Reb M after 24 h” value was found to be 0.2% and the initial rate was −3.3E+04 Reb M area/min.

B15: UGT76G1var30: UGT76G1 variant, mutations I43V_E224A_S241I (protein, UniProt Q6VAB4 1-458, looked up, variant I43V E224A S241I)
UDP-glycosyltransferase 76G1: B1 UDP-glycosyltransferase 76G1 with L22F, E224A, V239A, S241I
B15 showed an initial rate of 5.6E+06 Reb M area/min.

B16: UGT76G1var21: UGT76G1 variant, mutations A239V_V300A_K303G (protein, UniProt Q6VAB4 1-458, looked up, variant A239V V300A K303G)
UDP-glycosyltransferase 76G1: B1 UDP-glycosyltransferase 76G1 with L22F, V43I, V300A, K303G
Molecule B16 had an initial rate of 3.3E+07 Reb M area/min.

B17: UGT76G1var22: UGT76G1 variant, mutations E231A_V310I_R334K (protein, UniProt Q6VAB4 1-458, looked up, variant E231A V310I R334K)
UDP-glycosyltransferase 76G1: B1 UDP-glycosyltransferase 76G1 with L22F, V43I, E231A, V239A, V310I, R334K
In turn, B17 yielded an initial rate of 2.4E+07 Reb M area/min.

B18: UGT76G1var27: UGT76G1 variant, mutations A239I_L379A_V394I (protein, UniProt Q6VAB4 1-458, looked up, variant A239I L379A V394I)
UDP-glycosyltransferase 76G1: B1 UDP-glycosyltransferase 76G1 with L22F, V43I, V239I, L379A, V394I
As for B18, the “conversion Reb D to Reb M after 24 h” value is on record as 29.0% and the initial rate is 1.5E+07 Reb M area/min.

B19: UGT76G1var19: UGT76G1 variant, mutations E224D_E229A_Q432E (protein, UniProt Q6VAB4 1-458, looked up, variant E224D E229A Q432E)
UDP-glycosyltransferase 76G1: B1 UDP-glycosyltransferase 76G1 with L22F, V43I, E224D, E229A, V239A, Q432E
On to B19, for which the initial rate was 5.5E+06 Reb M area/min.

B20: UGT76G1var10: UGT76G1 variant, mutations A33G_L246F_Q342E (protein, UniProt Q6VAB4 1-458, looked up, variant A33G L246F Q342E)
UDP-glycosyltransferase 76G1: B1 UDP-glycosyltransferase 76G1 with L22F, A33G, V43I, V239A, L246F, Q342E
With B20, the “conversion Reb D to Reb M after 24 h” value is 0.3% and the initial rate is recorded as −7.7E+02 Reb M area/min.

B21: UGT76G1var28: UGT76G1 variant, mutations L243A_S274G_P382M (protein, UniProt Q6VAB4 1-458, looked up, variant L243A S274G P382M)
UDP-glycosyltransferase 76G1: B1 UDP-glycosyltransferase 76G1 with L22F, V43I, V239A, L243A, S274G, P382M
As for B21, the “conversion Reb D to Reb M after 24 h” value was 6.1% and the initial rate is recorded as 2.4E+06 Reb M area/min.

B22: UGT76G1var26: UGT76G1 variant, mutations S241I_F265L_F377C (protein, UniProt Q6VAB4 1-458, looked up, variant S241I F265L F377C)
UDP-glycosyltransferase 76G1: B1 UDP-glycosyltransferase 76G1 with L22F, V43I, V239A, S241I, F265L, F377C
Take B22: the “conversion Reb D to Reb M after 24 h” value came to 1.8% and the initial rate is given as 7.5E+05 Reb M area/min.

B23: UGT76G1var25: UGT76G1 variant, mutations T284L_Q342K_Y397Q (protein, UniProt Q6VAB4 1-458, looked up, variant T284L Q342K Y397Q)
UDP-glycosyltransferase 76G1: B1 UDP-glycosyltransferase 76G1 with L22F, V43I, V239A, T284L, Q342K, Y397Q
As to B23, the “conversion Reb D to Reb M after 24 h” value worked out at 0.9% and the initial rate stood at 6.3E+04 Reb M area/min.

B24: UGT76G1var9: UGT76G1 variant, mutations E231A_D301N_G348P (protein, UniProt Q6VAB4 1-458, looked up, variant E231A D301N G348P)
UDP-glycosyltransferase 76G1: B1 UDP-glycosyltransferase 76G1 with L22F, V43I, E231A, V239A, D301N, G348P
Regarding B24, the “conversion Reb D to Reb M after 24 h” value is listed as 52.0% and the initial rate was 4.9E+07 Reb M area/min.

B25: UGT76G1var15: UGT76G1 variant, mutations F41L_L246F_Q425E (protein, UniProt Q6VAB4 1-458, looked up, variant F41L L246F Q425E)
UDP-glycosyltransferase 76G1: B1 UDP-glycosyltransferase 76G1 with L22F, F41L, V43I, V239A, L246F, Q425E
Turning to B25, the “conversion Reb D to Reb M after 24 h” value is listed as 5.6% and the initial rate is recorded as 1.5E+06 Reb M area/min.

B26: UGT76G1var16: UGT76G1 variant, mutations F265I_P272A_I335V (protein, UniProt Q6VAB4 1-458, looked up, variant F265I P272A I335V)
UDP-glycosyltransferase 76G1: B1 UDP-glycosyltransferase 76G1 with L22F, V43I, V239A, F265I, P272A, I335V
B26 showed an initial rate of 5.8E+06 Reb M area/min.

B27: UGT76G1var17: UGT76G1 variant, mutations F265L_Q266E_Q342K (protein, UniProt Q6VAB4 1-458, looked up, variant F265L Q266E Q342K)
UDP-glycosyltransferase 76G1: B1 UDP-glycosyltransferase 76G1 with L22F, V43I, V239A, F265L, Q266E, Q342K
As for B27, the “conversion Reb D to Reb M after 24 h” value was 0.7% and the initial rate was found to be 7.2E+05 Reb M area/min.

B28: UGT76G1var24: UGT76G1 variant, mutations A239I_P272A_Q425E (protein, UniProt Q6VAB4 1-458, looked up, variant A239I P272A Q425E)
UDP-glycosyltransferase 76G1: B1 UDP-glycosyltransferase 76G1 with L22F, V43I, V239I, P272A, Q425E
As to B28, the “conversion Reb D to Reb M after 24 h” value is 31.0% and the initial rate is 2.1E+07 Reb M area/min.
